Article PMC4922585

Experiments:
[1] = target: TFLBR-FVIIa complex on THP-1 cells (UniProt P13726)
[2] = target: Wild-type TF-FVIIa complex on THP-1 cells (UniProt P13726)
[3] = target: TF G164A-FVIIa complex on THP-1 cells (UniProt P13726)
[4] = target: TF S160A-FVIIa complex on THP-1 cells (UniProt P13726)
[5] = target: Wild-type TF-FVIIa complex on THP-1 cells (UniProt P13726); remark: listed apart in the source

- Km of FX activation by TF-FVIIa on THP-1 cells treated with HgCl2 (100 μM, 5 min) (FVIIa 10 nM, FX 25 to 1000 nM) [1]: 0.223 µM
- Km of FX activation by TF-FVIIa on THP-1 cells treated with control vehicle (FVIIa 10 nM, FX 25 to 1000 nM) [1]: 0.196 µM
- Km of FX activation by TF-FVIIa on THP-1 cells treated with HgCl2 (100 μM, 5 min) (FVIIa 10 nM, FX 25 to 1000 nM) [2]: 0.137 µM
- Km of FX activation by TF-FVIIa on THP-1 cells treated with control vehicle (FVIIa 10 nM, FX 25 to 1000 nM) [2]: 0.187 µM
- Km of FX activation by TF-FVIIa on THP-1 cells (Michaelis-Menten kinetics) [3]: 0.191 µM
- Km of FX activation by TF-FVIIa on THP-1 cells (Michaelis-Menten kinetics) [4]: 0.117 µM
- Km of FX activation by TF-FVIIa on THP-1 cells (Michaelis-Menten kinetics) [5]: 0.134 µM
Substance: Purified human factor X (natural protein)
